Experiments:
[1] = biological target: CD14 (UniProt P08571); experiment: SPR; TLR2 or CD14 (ligands) immobilised on a CM5 chip; different SIC concentrations as analyte; 1:1 Langmuir fit
[2] = biological target: TLR2 (UniProt O60603); experiment: as above
Chain of UniProt O60603 (O60603 21-784): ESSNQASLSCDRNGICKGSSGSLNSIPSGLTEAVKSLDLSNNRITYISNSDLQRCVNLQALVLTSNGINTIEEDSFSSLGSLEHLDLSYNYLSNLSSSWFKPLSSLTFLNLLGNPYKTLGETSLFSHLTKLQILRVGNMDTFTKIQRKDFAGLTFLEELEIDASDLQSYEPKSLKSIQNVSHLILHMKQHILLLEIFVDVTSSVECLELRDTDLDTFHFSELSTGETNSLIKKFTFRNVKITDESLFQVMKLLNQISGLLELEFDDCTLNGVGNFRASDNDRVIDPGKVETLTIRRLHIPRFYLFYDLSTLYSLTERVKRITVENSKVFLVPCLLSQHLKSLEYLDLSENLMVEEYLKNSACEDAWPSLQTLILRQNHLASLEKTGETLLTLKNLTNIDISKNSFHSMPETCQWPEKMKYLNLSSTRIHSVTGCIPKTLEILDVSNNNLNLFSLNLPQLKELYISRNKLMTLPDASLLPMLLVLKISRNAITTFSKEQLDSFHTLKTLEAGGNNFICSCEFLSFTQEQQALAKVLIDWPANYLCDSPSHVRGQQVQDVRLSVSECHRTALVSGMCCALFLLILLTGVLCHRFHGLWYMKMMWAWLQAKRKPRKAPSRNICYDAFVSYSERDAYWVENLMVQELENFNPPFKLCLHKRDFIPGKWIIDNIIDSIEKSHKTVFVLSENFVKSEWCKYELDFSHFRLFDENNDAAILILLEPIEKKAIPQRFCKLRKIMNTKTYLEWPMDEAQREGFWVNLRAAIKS

Chain of UniProt P08571 (P08571 20-345): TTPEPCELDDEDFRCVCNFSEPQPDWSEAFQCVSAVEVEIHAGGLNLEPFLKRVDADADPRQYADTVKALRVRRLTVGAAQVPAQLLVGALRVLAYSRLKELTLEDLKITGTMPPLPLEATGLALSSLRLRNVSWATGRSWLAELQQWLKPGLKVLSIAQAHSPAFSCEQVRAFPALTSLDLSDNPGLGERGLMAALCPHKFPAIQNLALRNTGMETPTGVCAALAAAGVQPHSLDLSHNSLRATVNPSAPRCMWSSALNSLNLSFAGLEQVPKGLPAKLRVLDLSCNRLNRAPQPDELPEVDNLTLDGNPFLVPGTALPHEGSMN

“Streptococcal inhibitor of complement (SIC) from S. pyogenes M1 strain AP1 (natural protein)” showed a Kd [1] of 2.52 µM and a Kd [2] of 12.9 µM.
